Common to all, as to assay: purified protein
Holding throughout (type): biochemical, Phytobacter diazotrophicus

Series [1] relates to CO/N=C(\C(=O)N[C@@H]1C(=O)N2C(C(=O)O)=C(COC(N)=O)CS[C@H]12)c1ccco1. Conditions: 50 mM HEPES pH 7.5, 25°C, 50 µM ZnSO4, 1.27 µM enzyme.
For series [2], the system named is CO/N=C(\C(=O)N[C@@H]1C(=O)N2C(C(=O)O)=C(COC(C)=O)CS[C@H]12)c1csc(N)n1. Conditions: 50 mM HEPES pH 7.5, 25°C, 50 µM ZnSO4, 0.634 µM enzyme, kcat 0.61 in source.
The subject of series [3] is CC(=O)OCC1=C(C(=O)O)N2C(=O)[C@@H](NC(=O)Cc3cccs3)[C@H]2SC1. Conditions: 50 mM HEPES pH 7.5, 25°C, 50 µM ZnSO4, 0.634 µM enzyme.

For the substance CAR-2 (Phytobacter diazotrophicus), in series [1], the Michaelis constant (Km) is 49.28 µM, the maximum rate (Vmax) was determined as 16.2 µM/min, the catalytic constant (kcat) was 0.21 s⁻¹ and the catalytic efficiency (kcat/Km) is 4260 M⁻¹ s⁻¹. Also, in series [2], the Km came out at 33.08 µM, the Vmax was 23.4 µM/min, the kcat amounted to 0.62 s⁻¹ and the kcat/Km was found to be 18700 M⁻¹ s⁻¹. In addition, in series [3], the Km turned out to be 63.78 µM, the Vmax is 31.8 µM/min, the kcat is 0.84 s⁻¹ and the specificity constant (kcat/Km) turned out to be 13200 M⁻¹ s⁻¹.

One may read the Km as the concentration of substrate that gives half-maximal velocity. The term Vmax denotes the rate approached at saturating substrate. The kcat is the number of substrate molecules converted per active site and unit of time at saturation. As usually defined, the kcat/Km is the turnover number divided by the Michaelis constant.

For the origin of these results see paper PMC12434095, “LysR-type transcriptional regulator CARR represses the expression of bla CAR-2 and reduces P. diazotrophicus resistance to cefalothin, cefuroxime and cefotaxime” (Frontiers in Cellular and Infection Microbiology, 2025).
